The values that follow come from patent US20250340654A1 (INTERVET, published 2025).

Substitutions are numbered along the chain they refer to.

T1: Canine IL-31RA ECD-10His (canine, biotin-labeled in the Octet assay (site not stated))
T1 construct: The ELISA and Octet protocols say only 'IL-31RA' or 'canine IL-31RA'; also called cIL-31RA; canine IL-31 receptor alpha extracellular domain, HIS-tagged
T1 chain: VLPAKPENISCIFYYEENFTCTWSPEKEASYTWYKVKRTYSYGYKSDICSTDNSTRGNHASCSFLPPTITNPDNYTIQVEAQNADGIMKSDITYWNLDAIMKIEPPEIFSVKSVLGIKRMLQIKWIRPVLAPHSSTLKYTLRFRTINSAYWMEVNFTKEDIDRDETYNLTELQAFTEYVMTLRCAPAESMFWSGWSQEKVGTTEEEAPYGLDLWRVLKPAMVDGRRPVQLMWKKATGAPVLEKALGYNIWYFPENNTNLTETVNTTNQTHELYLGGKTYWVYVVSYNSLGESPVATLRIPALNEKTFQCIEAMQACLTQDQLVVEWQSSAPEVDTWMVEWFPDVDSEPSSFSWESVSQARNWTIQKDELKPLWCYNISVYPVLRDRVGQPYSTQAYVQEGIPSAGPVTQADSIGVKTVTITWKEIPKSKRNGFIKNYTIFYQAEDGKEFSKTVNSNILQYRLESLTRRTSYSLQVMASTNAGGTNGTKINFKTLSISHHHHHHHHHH

B1: Chimeric 218D9 (antibody, V domains shown)
VH: QVTLKESGPGILQPSQTLSLTCSFSGFSLSTFGRGVGWIRQPSGKGLDWLTHIWWDDDKYYNPALKSRLTISKDTSKNQVFLKIANVDTADTATYYCARIAGGLRRAPYAMDSWGQGTSVTVSS
VL: DIQMTQSPASLSVSVGETVTITCRASENIYSSLAWYQQKQGKSPQLLVYAATNLADGVPSRFSGSGSGTQYSLKINSLQSEDSGNYYCQHFRDTPPTFGGGTKLEIK
notes: canine constant regions not specified; also called mouse-canine chimeric 218D9 antibody
B2: c218D9VH3VL2 (antibody, V domains shown)
VH: EVTLQESGPGLVKPSQTLSLTCSFSGFSLSTFGRGVGWIRQRPGRGLEWMGHIWWDDDKYYNPALKSRLSITKDTAKNQFSLQLSSMTTEDTAVYYCARIAGGLRRAPYAMDSWGQGTLVTVSS
VL: DIVMTQTPLSLSVSPGETASISCRASENIYSSLAWFRQKPGQSPQLLIYAATNLADGVPDRFSGSGSGTDFTLRISRVEADDTGVYYCQHFRDTPPTFGQGTKLEIKR
notes: Caninized antibody; chains tied by name to c218D9VH3-cIgGBm and c218D9VL2-cCK; also called c218D9VH3L2
B3: c218D9VH4VL2 (antibody, V domains shown)
VH: B2 VH with F80V, S81F
VL: B2 VL
notes: Caninized antibody; chains tied by name to c218D9VH4-cIgGBm and c218D9VL2-cCK; also called c218D9VH4L2
B4: c218D9VH3VL3 (antibody, V domains shown)
VH: B2 VH
VL: B2 VL with I48V, F71Y
notes: Caninized antibody; chains tied by name to c218D9VH3-cIgGBm and c218D9VL3-cCK; also called c218D9VH3L3
B5: c218D9VH4VL3 (antibody, V domains shown)
VH: B2 VH with F80V, S81F
VL: B2 VL with I48V, F71Y
notes: Caninized antibody; chains tied by name to c218D9VH4-cIgGBm and c218D9VL3-cCK; also called c218D9VH4L3
B6: 218D9 (antibody, V domains shown)
VH: B1 VH
VL: B1 VL
notes: Mouse monoclonal antibody from a hybridoma; also called mouse mAb 218D9
B7: 209G5 (antibody, V domains shown)
VH: EVQLQQSVAELVRPGASVKLSCTASGFNIKNTYMHWVKERPEQGLEWIGRIDPANGNSKYAPKFQGKATITTDTSSNTAYLQLSSLTSEDTAIYYCARYYYVSSHFDVWGTGTTVTVSS
VL: SIVMTQTPKFLLVSAGDRVTITCKASQSVTNDVTWYQQKPGQSPKLLIYYASNRYTGVPDRFTGSGYGTDFTFTISTVQAEDLAVYFCQQDYSSPFTFGSGTKLEIK
notes: Mouse monoclonal antibody from a hybridoma; also called mouse mAb 209G5
B8: 224G3 (antibody, V domains shown)
VH: EVQLVESGGDLVKPGGSLKLSCAASGFTFSSYGMSWVRQTPDKRLEWVATISNGGSYTYYPDSVKGRFTISRDNAKNTLYMQMSSLKSEDTAMYYCARNEPPDYWGQGTSVTVSS
VL: QIVLTQSPAIMSASLGERVTMTCTASSSVGSSYLHWYQQKPGSSPKLWIYDTSNLASGVPVRFSGSGSGTSYSLTISSMEAEDAATYYCHQYHRSPYTFGGGTKLEIK
notes: Mouse monoclonal antibody from a hybridoma; also called mouse mAb 224G3
B9: 85C10 (antibody, V domains shown)
VH: EFQLQQSGPELVKPGASVKISCKASGYSFTDYSINWVKQSNGKSLEWIGVINPNYGTSSHNQKFKGKATMTVDQSSSTAYMQLNSLTSEDSAVYYCARALDDYYFYWYFDVWGIGTTVTVSS
VL: DVVMTQTPLSLPVSLGDQASISCRSSQSLVHTNGNTYLHWYLQKPGQSPKLLIYKVSNRFSGVPDRFSGSGSGTDFTLKISRVEAEDLGVYFCSQTTHVPLTFGAGTKLELK
notes: Mouse monoclonal antibody from a hybridoma; also called mouse mAb 85C10
B10: c51F8VH4VL6 (antibody, V domains shown)
VH: EVQLVQSGAEVVKPGASVKVSCTASGFNIKNTFIHWVRQRPGAGLDWIGRIDPANGNTKYAPKFQGRATLTADTSTNTAYMQLSSLRAGDIAVYYCARYYYVSSYFDVWGTGTLVTVSS
VL: DIVMTQTPLSLSVSPGETASISCKASQSVTNDVTWFRQKPGQSPQLLIYSASNRYTGVPDRFSGSGSGTDFTLRISTVEADDTGVYYCQQDYSSPWTFGQGTKLEIKR
notes: Caninized antibody; chains tied by name to c51F8VH4-cIgGBm and c51F8VL6-cCK; also called c51F8VH4L6
B11: c51F8VH4VL7 (antibody, V domains shown)
VH: B10 VH
VL: B10 VL with Q45K
notes: Caninized antibody; chains tied by name to c51F8VH4-cIgGBm and c51F8VL7-cCK; also called c51F8VH4L7

One assay has as its target T2, canine IL-31 receptor complex (IL-31RA and OSMR) on Ba/f3-OI cells (canine). In words: cell-based or functional assay.
Consider B1, for which the “IC50, inhibition of IL-31 mediated STAT-3 phosphorylation in Ba/f3-OI cells” value (shortened to “IC50, inhibition”) was ~2.2 nM.

As to B2, the “IC50, inhibition” value is ~230 nM.

Regarding B3, the “IC50, inhibition” value is ~8.3 nM.

On to B4, for which the “IC50, inhibition” value is ~2.5 nM.

For the molecule B5, the “IC50, inhibition” value is ~2.9 nM.

A further assay concerns the target T2, canine IL-31 receptor complex (IL-31RA …). In words: cell-based or functional assay. This is another data set of the same source.
In the case of B1, the “IC50: inhibition of IL-31 mediated STAT-3 phosphorylation in Ba/f3-OI cells (AlphaLISA p-STAT3), the unit is that of the x axis 'Antibody Log Conc. (nM)'” value was 2.24 nM.

As to B2, the “IC50: inhibition of IL-31 mediated STAT-3 phosphorylation in Ba/f3-OI cells (AlphaLISA p-STAT3), the unit is that of the x axis 'Antibody Log Conc. (nM)'” value worked out at 226 nM.

For B3, the “IC50: inhibition of IL-31 mediated STAT-3 phosphorylation in Ba/f3-OI cells (AlphaLISA p-STAT3), the unit is that of the x axis 'Antibody Log Conc. (nM)'” value was found to be 8.27 nM.

For the molecule B4, the “IC50: inhibition of IL-31 mediated STAT-3 phosphorylation in Ba/f3-OI cells (AlphaLISA p-STAT3), the unit is that of the x axis 'Antibody Log Conc. (nM)'” value was 2.97 nM.

For B5, the “IC50: inhibition of IL-31 mediated STAT-3 phosphorylation in Ba/f3-OI cells (AlphaLISA p-STAT3), the unit is that of the x axis 'Antibody Log Conc. (nM)'” value amounted to 2.5 nM.

Another assay shares this target. In words: cell-based or functional assay. The source holds these as a separate data set.
B6: the “IC50 (read off the curve): inhibition of IL-31 mediated STAT-3 phosphorylation in Ba/f3-OI cells” value was ~2000 ng/mL.

As to B7, the “IC50 (read off the curve): inhibition of IL-31 mediated STAT-3 phosphorylation in Ba/f3-OI cells” value is ~2000 ng/mL.

The next assay addresses T1, Canine IL-31RA ECD-10His. In words: BLI (Octet); end of the range tied to 224G3 by Table 2. The method, then: (§1) All kinetics measurements were performed by Octet HTX using SA biosensors and Data Acquisition 12.0 software. A biotin-labeled antigen (canine IL-31RA) was loaded onto the pre-rehydrated SA biosensors for 120s at a concentration of 1 μg/mL. Next, the biosensors were placed into Octet Kinetics Buffer (PBS+0.02% Tween 20, 0.1% BSA) for the blocking phase for 120s. Then, for the association phase, antigen loaded biosensors were placed into 2-fold serial dilutions from 100 nM down to 3.13 nM of anti-IL-31RA monoclonal antibody in Octet Kinetics Buffer for 300s. The last well was buffer alone and that sensor was used for reference sensor subtraction. Finally, the biosensors were placed into Octet Kinetics Buffer for the dissociation phase for 300s. Analysis was performed using Data Analysis 12.0 software and curves were fitted using a 1:1 binding model.
A general note: In BLI a coated tip is dipped into the sample, and binding shifts an interference pattern.
Broadly, the Kd is a measure of binding affinity in units of concentration. As for B8, the dissociation constant Kd came to 0.001 nM.

For a further assay, the target named is T1, Canine IL-31RA ECD-10His. In words: BLI (Octet); end of the range tied to 85C10 by Table 2. How it is done: as §1
B9 yielded a dissociation constant Kd of 0.85 nM. That is a sub-nanomolar value.

A further assay has as its target T1, Canine IL-31RA ECD-10His. In words: BLI (Octet), biotin-labeled canine IL-31RA on SA biosensors. How it is done:
as §1
Two of the top blocking antibodies: 51F8 and 218D9, had KDs of about 0.2 nM and about 0.07 nM respectively (see, Table 5B below).
A word on the koff: it is the first-order rate constant of dissociation. Usually kon stands for the second-order rate constant of association. Higher therefore signals faster complex formation. B1 had a Kd of 0.0698 nM, a koff of 4.63e-05 s⁻¹ and a kon of 664000 M⁻¹ s⁻¹.

Regarding B10, binding was characterised by a dissociation constant (Kd) of 1.01 nM, the koff came out at 0.000448 s⁻¹ and the kon amounted to 445000 M⁻¹ s⁻¹.

As to B11, binding was put at a Kd of 1.23 nM, the koff was 0.000512 s⁻¹ and the kon came out at 416000 M⁻¹ s⁻¹.

Consider B2, for which binding was characterised by a dissociation constant (Kd) of 0.528 nM, the dissociation rate constant (koff) was determined as 0.000338 s⁻¹ and the on-rate constant (kon) was determined as 641000 M⁻¹ s⁻¹.

With B3, the dissociation constant (Kd) was 0.305 nM, the koff came to 0.000165 s⁻¹ and the kon was found to be 541000 M⁻¹ s⁻¹.

B4 registered a Kd of 0.0416 nM, a koff of 2.75e-05 s⁻¹ and a kon of 661000 M⁻¹ s⁻¹.

Molecule B5 registered a Kd of 0.0447 nM, a koff of 2.69e-05 s⁻¹ and a kon of 601000 M⁻¹ s⁻¹.

A further assay addresses T1, Canine IL-31RA ECD-10His. In words: BLI (Octet HTX), biotin-labeled canine IL-31RA on SA biosensors, 1:1 fit. How it is done: These constants reflect the binding affinity of the individual monoclonal antibodies for canine IL-31 RA.
as §1
Regarding B6, the Kd is 0.0698 nM, the koff was found to be 4.63e-05 s⁻¹ and the kon amounted to 664000 M⁻¹ s⁻¹.

Molecule B7 displayed a Kd of 0.131 nM, a koff of 4.87e-05 s⁻¹ and an on-rate constant (kon) of 370000 M⁻¹ s⁻¹.

B9 yielded a Kd of 0.851 nM, a koff of 0.000363 s⁻¹ and a kon of 427000 M⁻¹ s⁻¹.

Take B8: binding was characterised by a dissociation constant (Kd) of 0.000964 nM, the koff stood at 1.08e-06 s⁻¹ and the kon stood at 1.12e+06 M⁻¹ s⁻¹.

Another assay addresses T1, Canine IL-31RA ECD-10His. In words: ELISA on coated canine IL-31RA, anti-canine IgG Fc-HRP (Example 11), the unit is that of the x axis 'Ab Log Conc. (ng/mL)'. The method, then: 1. Coat 200 ng/well of IL-31RA on an immunoplate and incubate the plate at 4° C. overnight. [0257] 2. Wash the plate 3 times with phosphate buffered saline (PBS) containing 0.05% Tween 20 (PBST). […] 3. Block the plate with 0.5% bovine serum albumin (BSA) in PBS for 45-60 min at room temperature. [0259] 4. Wash the plate 3 times with PBST. [0260] 5. Three-fold dilute the caninized antibody in each column or row of dilution plate starting at 0.3 μg/mL. [0261] 6. Transfer the diluted caninized antibody into each column or row of the immunoplate, and incubate the plate for 45-60 min at room temperature. [0262] 7. Wash the plate 3 times with PBST. [0263] 8. Add 1:4000 diluted horseradish peroxidase labeled anti-canine IgG Fc into each well of the plate, and then incubate the plate for 45-60 min at room temperature. [0264] 9. Wash the plate 3 times with PBST. [0265] 10. Add 3,3′,5,5′-tetramethylbenzidine (TMB) Substrate into each well of the plate, and incubate the plate for 10 to 15 min at room temperature to develop the color. [0266] 11. Add 100 μL 1.5 M phosphoric acid into each well to stop the reaction. Read plate at 450 nm with 540 nm reference wavelength.
As depicted in FIGS. 7A-7E, the caninized antibodies were tested for their reactivity to canine IL-31RA.
On the technique in general: ELISA stands for enzyme-linked immunosorbent assay.
By EC50 is commonly meant the concentration at which the effect is half-maximal. A higher EC50 goes with a less potent agent. The molecule B1 registered an EC50 of 3.15 ng/mL.

Consider B10, for which the midpoint of the response, the EC50, lay at 8.31 ng/mL.

With B11, the EC50 stood at 11.3 ng/mL.

As for B2, the EC50 was 4.29 ng/mL.

With B3, the EC50 was 4.1 ng/mL.

Turning to B4, a half-maximal effect (EC50) was put at 3.22 ng/mL. The EC50 values of the last two molecules are within 1.5-fold of each other.

Consider B5, for which the EC50 was found to be 3.58 ng/mL.
